# Assay results published in patent US20230374471A1, “SELF-ASSEMBLING URICASE FUSION PEPTIDES” (University of Florida Research Foundation, Incorporated, priority 2020, published 2023).
# T1: Ac-EQEPEPEPEQE-Am [mCATCH(-)]
# T1 construct: Mutant of CATCH(-) with proline in place of the phenylalanine residues
# T1 peptide: Ac-EQEPEPEPEQE-NH2
# B1: Ac-QQKPKPKPKQQ-Am [mCATCH(+)] (peptide)
# peptide: Ac-QQKPKPKPKQQ-NH2
# notes: Mutant of CATCH(+) with proline in place of the phenylalanine residues
# B2: Ac-EQEFEFEFEQE-Am [CATCH(-)] (peptide)
# peptide: Ac-EQEFEFEFEQE-NH2
# notes: Synthetic designed anionic variant of Q11, made by Fmoc solid-phase synthesis; also called CATCH (6-); negative peptide
# B3: Ac-QQKFKFKFKQQ-Am [CATCH(+)] (peptide)
# peptide: Ac-QQKFKFKFKQQ-NH2
# notes: Synthetic designed cationic variant of Q11, made by Fmoc solid-phase synthesis; also called CATCH (4+); positive peptide
# B4: CATCH-U: uricase fused to a CATCH peptide, expressed in E. coli, purified via nickel affinity chromatography; probably SEQ ID NO: 9 (FIG. 59) (protein)
# chain: MAEQEFEFEFEQEGSGGGSGGSGGGGSGGSGEFMSAVKAARYGKDNVRVYKVHKDEKTGVQTVYEMTVCVLLEGEIETSYTKADNSVIVATDSIKNTIYITAKQNPVTPPELFGSILGTHFIEKYNHIHAAHVNIVCHRWTRMDIDGKPHPHSFIRDSEEKRNVQVDVVEGKGIDIKSSLSGLTVLKSTNSQFWGFLRDEYTTLKETWDRILSTDVDATWQWKNFSGLQEVRSHVPKFDATWATAREVTLKTFAEDNSASVQATMYKMAEQILARQQLIETVEYSLPNKHYFEIDLSWHKGLQNTGKNAEVFAPQSDPNGLIKCTVGRSSLKSKLLEHHHHHH
# Key:
# [1] = Protein incorporation and retention in macroscopic hydrogels under excess PBS; format: physicochemical
# Protocol: Macroscopic Hydrogel Formation. A 12 mM stock solution of CATCH(−) was prepared by dissolving dry peptide in 1x PBS and adjusting the pH to ˜7.6 with ammonium bicarbonate (Fisher). A 12 mM stock solution of CATCH(+) was prepared by dissolving dry peptide in 1X PBS and adjusting the pH to ˜7.2 with hydrochloric acid (0.5 N Fisher). CATCH peptide stock solutions were combined at a 1:1 (v/v) ratio in a 0.2 mL glass vial (Thermo), and the vial was gently swirled for 2 min until the hydrogel formed. The hydrogel was stained with red food coloring to aid visualization. Hydrogel images were recorded using a digital still camera.
# Protein Incorporation into Macroscopic Hydrogels. […] Immediately after hydrogel formation, fluorescence was visualized by placing the glass vials on a SafeImager 2.0 transilluminator (Invitrogen) and recording images with a digital still camera. […] At various time points, fluorescence in the buffer supernatant was visualized by placing the glass vials on a SafeImager 2.0 transilluminator (Invitrogen) and recording images with a digital still camera. At the end-point, buffer supernatant was carefully removed by decanting and fluorescence was visualized by placing the glass vials on a SafeImager 2.0 transilluminator (Invitrogen) and recording images with a digital still camera.
# [2] = Circular dichroism: concentration-dependent transition from random coil to β-sheet; format: physicochemical; conditions: equimolar mixture of CATCH peptides in 1x PBS, ellipticity at 212 nm
# Protocol: Circular Dichroism. Circular Dichroism was performed on an AVIV 202 spectrometer. Peptides were prepared in 1x PBS at 500 μM, unless stated otherwise. Samples were run 3 times, averaged, and converted to mean residue ellipticity. All data reported was for dynode values <500 V.
# (§1) Nanofiber preparation. Stock solutions of CATCH(−) and CATCH(+) were prepared by dissolving lyophilized peptides in 1x PBS to a final concentration of 500 μM. Peptide concentration was confirmed using Phe absorbance (λ=260 nm). CATCH peptides were then mixed at a 1:1 (v/v) ratio and incubated overnight for formation of nanofibers, unless stated otherwise.
# [3] = literature value (ref. 7); cited from earlier work
# [4] = target: T1, Ac-EQEPEPEPEQE-Am [mCATCH(-)]; assay: ThT fluorimetry, kinetic, equimolar mixture
# [5] = target: B1; assay: ThT fluorimetry, equimolar mixture
# Protocol: (§2) Thioflavin T (ThT) Assay. A ThT stock solution containing 0.8 mg/mL of thioflavin T (Acros) in 1x phosphate-buffered saline (PBS) (137 mM NaCl, 2.7 mM KCl, 10 mM Na₂HPO₄ and 1.8 mM KH₂PO₄, pH 7.4) was filtered through a 0.22 μm syringe filter (Millex), and further diluted 1:10 with 1x PBS to create a working solution. Peptide samples were mixed with the ThT working solution at a 1:10 (v/v) ratio, added to a black 96-well plate (Corning), and analyzed with a Molecular Devices SpectraMax M3 spectrophotometer (excitation 450, emission 482 nm). All samples were run in triplicate, with the mean and standard deviation of these samples reported.
# as §1
# [6] = target: the molecule itself; assay: ThT fluorimetry, TEM, CD and fluorescence microscopy of the peptide alone
# [7] = target: T1, Ac-EQEPEPEPEQE-Am [mCATCH(-)]; assay: ThT fluorimetry, equimolar mixture
# Protocol: as §2, §1
# [8] = Dissolution of monosodium urate (MSU) crystals in vitro; format: biochemical; conditions: 12.6 ug soluble CATCH-U, 0.5 mg MSU crystals, 2250 U/mL catalase, 96 hours, density at 293 nm
# Protocol: The enzymatic activity of CATCH-U in soluble and gel form was evaluated by measuring uric acid depletion over time via absorbance at 293 nm and 37° C. for varying concentrations of uric acid substrate. Hydrogels were left to incubate at 37° C. for 4 days with substrate removed and replenished daily to determine if the gels remain active over this timeframe. Gels were also incubated with monosodium urate (MSU) crystals.
# Soluble CATCH-U activity in dissolving MSU crystals was assessed by incubating 12.6 ug soluble CATCH-U with 0.5 mg MSU crystals and 2250 U/mL catalase for 96 hours (FIG. 60). MSU crystal density was determined at 293 nm compared to a standard curve of crystals. […] Brightfield images, scale bar=[…].
# The hydrogel creates a concentration gradient sufficient to dissolve crystallized uric acid in the form of monosodium urate (MSU) crystals (FIGS. 58 and 61). […] MSU crystals appear as white flakes while the background is black. The gel is the white mass on the right. […] A similar experiment was performed with lOuL hydrogels comprising 3.17 ug CATCH-U and incubated with 1 g/L MSU crystals for 24 hours (FIG. 61). […] Polarized, phase contrast images, scale bar=500 μm.
molecule,measurement,setting,value
CATCH(−)GFP: recombinant fusion of CATCH(−) and superfolder green fluorescent protein (GFP),Fluorescence of hydrogel after incubation under excess 1x PBS,"[1]; CATCH hydrogels formed in presence of the fusion protein, 48 h",retained their fluorescence
same,GFP in the buffer layer over the hydrogels,"[1]; excess 1x PBS, up to 48 h",no GFP was detected
CATCH peptides: equimolar mixture of CATCH(+) and CATCH(−) peptides that co-assemble into β-sheet nanofibers (Ac-QQKFKFKFKQQ-NH2; not fully specified),β-sheet fibrillization concentration,[2],about 300 μM
Ac-QQKFQFQFEQQ-Am (Ac-QQKFQFQFEQQ-NH2) [Q11],Concentration at which the peptide self-assembles into β-sheet nanofibers,[3],~10 µM
B1,binding result,[4],no binding
B2,binding result,[5],no binding
same,binding result,[6],no binding
B3,binding result,[7],no binding
same,binding result,[6],no binding
B4,MSU crystal amount over time,[8],steady and significant decrease
